What was measured:
ERα and ERβ = conditions: Barkham et al. (1998) Molecular Pharmacology, 54:105-112; cited from earlier work
[1] = test system: ZFP757-ERalpha LBD (synthetic/human); test: cell_activity; conditions: AnxA8 mRNA, 100 nM 17beta-estradiol vs untreated, HEK293
[2] = test system: ZFP734-FXR LBD (synthetic/human); test: cell_activity; conditions: Kip2 mRNA, 100 nM CDCA vs untreated, HEK293
[3] = test system: ZFP1727-TRbeta LBD (synthetic/human); test: cell_activity; conditions: GRP mRNA, 100 nM T3, HEK293

For `C[C@]12CC[C@@H]3c4ccc(O)cc4CC[C@H]3[C@@H]1CC[C@H]2O` [17alpha-estradiol], the “activation of ERα and ERβ as known from the literature” value (ERα and ERβ) is listed as “preferentially activates ERα”.

For “CGGGCGGCTG (double strand) [anxA8 site (ZFP757)]”, the activity [1] was 12 fold.

“GGGGCTGGGT (double strand) [kip2 site (ZFP734)]” gave an activity [2] of 3.5 fold.

“GGTGGGGAGG (double strand) [GRP site (ZFP1727)]” gave an activity [3] of 14 fold.

Source: patent US20040235002A1, “Multiplex screening assays” (Sangamo BioSciences, Inc., priority 2002, published 2004)
